What is called Km is the concentration of substrate that gives half-maximal velocity. For orientation: kcat means the number of substrate molecules converted per active site and unit of time at saturation.

These results are taken from paper PMC3855486, “New Insights into the Phylogeny and Molecular Classification of Nicotinamide Mononucleotide Deamidases” (PLoS ONE, 2013).

Substrate in this data set: NC(=O)c1ccc[n+]([C@@H]2O[C@H](COP(=O)(O)O)[C@@H](O)[C@H]2O)c1
The data set is described as follows: HPLC, decrease of NMN peak area. Type of data set: biochemical, Oceanobacillus iheyensis. The following applies: 50 mM phosphate buffer pH 7.5, 37 °C, Michaelian, NMN 0.01-1 mM.

B1: OiPncC (Oceanobacillus iheyensis HTE831) (protein)
chain: MKNYQAEIVAVGTELLLGQIANTNAQWLSEKLATYGINMYNHTVVGDNLERVEQAFQLAQSRSNIIIVTGGLGPTADDLTREGFQQMTGLPLVEDKESMEKIEGFFQNRGRTMTPNNRKQARVFEGSTVLNNKAGMAPGMYVHYQSCHWFFLPGVPREMKHISQEELFPFLEKVTGKQRIIQSVVLKFIGIGESTLEHTLSDLIEKQTNPTIAPLAQDQAVVIRLTARGETKQEAEAMLEQTKKLILARVGEHYFGENEESIEDIVVQQLQDLGYSISAAESITGGMFSQRLVSVTGASNVFAGSFITYQSRIKEEVLEVPSEIIHSQGVVSRACSDAMASNVTRKIQTNLGISFTGIAGPDEQEGKPVGTVYISIADGDEVVVSKQFNFTGNRNHIRDRACLKGFELIYQYLKSKS
notes: full length, 417 residues (gene misprinted as 417 bp), MocF-CinA two-domain; C-terminal His6 (pET24b), E. coli Rosetta2(DE3)
In the case of B1, the Km worked out at 180 ± 20 µM and the kcat was 0.38 ± 0.01 s⁻¹.
